Experimental data reported in patent US20050272050A1 (published 2005).

Biological target: T1, full length human CD154 on stably transfected mouse fibroblasts (human, UniProt P29965 1-261)
T1 construct: whole, on cells; also called membrane CD154; hCD154
T1 sequence (looked up): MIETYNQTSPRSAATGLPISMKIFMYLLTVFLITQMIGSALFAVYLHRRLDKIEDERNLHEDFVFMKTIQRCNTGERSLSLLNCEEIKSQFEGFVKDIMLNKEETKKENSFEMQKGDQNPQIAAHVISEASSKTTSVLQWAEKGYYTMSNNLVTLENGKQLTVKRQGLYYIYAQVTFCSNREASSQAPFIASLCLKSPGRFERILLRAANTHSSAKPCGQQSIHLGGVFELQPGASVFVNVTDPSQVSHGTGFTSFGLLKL
Experiment: flow cytometry on mouse fibroblasts transfected with human CD154, detected with PE-EA-5
Protocol: 10⁶ mouse fibroblasts (stably transfected with full length human CD154) were incubated with CD40 NJ1 (FIGS. 7-8) or CD40 NJ3 variants (FIGS. 9-11). All the proteins were incubated at a concentration of 1-50 μg/ml at 4° C. for 60 min in total volume of 100 μl (0.5×10^6 cells). […] Analysis was performed using BD FACsCalibur. A known CD40 soluble variant was used (in the form of a FC tagged protein) as a positive control for detecting binding to CD154 (U.S. patent application No. 60/547,422, hereby incorporated by reference as if fully set forth herein) (FIG. 17-18).
Briefly, the FACS protocol was as follows. Mouse fibroblasts were trypsinized, and washed twice in PBS; cells were centrifuged at 1500 rpm for 10 min between washes. Next, the cells were re-suspended in FACS buffer (0.2% BSA and 0.02% sodium azide diluted 1/10 in PBS) to give 5-10×10⁶ cells mL. Cells were placed in FACS test-tubes at a volume of 100 or 200 microliters per tube.
Next, 2 μL (1:50) […] non-blocking antibody (EA-5 mouse IgG1 PE-conjugated, obtained from Calbiochem) or controls (same isotype PE conjugated) were added to the tubes, and incubated for 30 min at 4° C. The process of washing was then repeated with 5 mL PBS. Next, 0.5 mL PBS was added to tubes, which were read in a FACS machine (BD FACSCalibur).

B1: CD40 NJ3 splice variant (receptor)
chain: EPPTACREKQYLINSQCCSLCQPGQKLVSDCTEFTETECLPCGESEFLDTWNRETHCHQHKYCDPNLGLRVQQKGTSETDTICTCEEGWHCTSEACESCVLHRSCSPGFGVKQIATGVSDTICEPCPVGFFSNVSSAFEKCHPWTSCETKDLVVQQAGTNKTDVVCGESWTMGPGESLGRSPGSAESPGGDPHHLRDPVCHPLGAGLYQKGGQEANQ
notes: For ELISA and FACS it was expressed non-fused with baculovirus, secreted and purified from the supernatant on a G28-5 column; also called CD40 NJ3 variant; CD40 variant NJ3
binding result: binds

B2: CD40 NJ1 splice variant (receptor)
chain: EPPTACREKQYLINSQCCSLCQPGQKLVSDCTEFTETECLPCGESEFLDTWNRETHCHQHKYCDPNLGLRVQQKGTSETDTICTCEEGWHCTSEACESCVLHRSCSPGFGVKQIATGVSDTICEPCPVGFFSNVSSAFEKCHPWTSCETKDLVVQQAGTNKTDVVCGESWTMGPGESLGRWELKGEMRHTGTLDGKKGRGGSLGVWYHSSATYLGSLGKSLPLS
notes: For ELISA and FACS it was expressed non-fused with baculovirus, secreted and purified from the supernatant on a G28-5 column; also called CD40 NJ1 variant; CD40 variant NJ1
binding result: binds
